Literature values, collected in article PMC2818086.

Tested on: His64
Assay: kinetics
Settings: 25 °C; free enzyme in solution during catalysis (zinc-loaded)

In the case of “Carbonic anhydrase II (HCA II) N62A (Homo sapiens; N62A)”, the pKa is given as 6.2.

For “Carbonic anhydrase II (HCA II) N62D (Homo sapiens; N62D)”, the pKa is listed as 8.4.

For “Carbonic anhydrase II (HCA II) N62L (Homo sapiens; N62L)”, the pKa is given as 6.0.

In the case of “Carbonic anhydrase II (HCA II) N62T (Homo sapiens; N62T)”, the pKa is given as 7.0.

For “Carbonic anhydrase II (HCA II) N62V (Homo sapiens; N62V)”, the pKa is listed as 5.9.

For “Carbonic anhydrase II (HCA II) N67L (Homo sapiens; N67L)”, the pKa is listed as 7.5.

For “Carbonic anhydrase II (HCA II) Y7F (Homo sapiens; Y7F)”, the pKa is listed as 6.0.

In the case of “Carbonic anhydrase II (HCA II), wild type (Homo sapiens)”, the pKa is listed as 7.2.
